According to patent publication US20190263934A1:

How the values were obtained:
rFcRn (rat) [1] = target: rFcRn (rat) (UniProt P13599); assay: SPR Biacore, pH 6.0
Target sequence in this assay (P13599 23-298 limits assumed, form in doubt, chain 1 of 2): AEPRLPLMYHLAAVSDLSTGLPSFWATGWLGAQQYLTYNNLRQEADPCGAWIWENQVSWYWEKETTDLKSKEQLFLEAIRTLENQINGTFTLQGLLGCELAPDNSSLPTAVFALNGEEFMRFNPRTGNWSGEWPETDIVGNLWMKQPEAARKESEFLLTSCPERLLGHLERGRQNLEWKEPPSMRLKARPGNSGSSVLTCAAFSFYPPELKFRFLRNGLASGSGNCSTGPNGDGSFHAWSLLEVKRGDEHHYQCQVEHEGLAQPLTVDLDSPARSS
Target sequence in this assay (P07151 21-119 limits assumed, form in doubt, chain 2 of 2, further chain): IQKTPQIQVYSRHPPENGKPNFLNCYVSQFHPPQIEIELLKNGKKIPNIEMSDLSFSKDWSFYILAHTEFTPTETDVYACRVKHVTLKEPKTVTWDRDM

rFcRn (rat) [2] = target: rFcRn (rat) (UniProt P13599); assay: Biacore SPR, pH 6.0, bivalent fit
Target sequence in this assay (P13599 23-298, form in doubt, chain 1 of 2): as the sequence (P13599 23-298 limits assumed, form in doubt, chain 1 of 2) above
Target sequence in this assay (P07151 21-119, form in doubt, chain 2 of 2, further chain): as the sequence (P07151 21-119 limits assumed, form in doubt, chain 2 of 2, further chain) above

[3] = target: biotinylated hFcRn (human) (UniProt P55899); assay: SPR Biacore, pH 7.4, 1000 nM antibody
Target sequence in this assay (P55899 24-297 limits assumed, form in doubt, chain 1 of 2): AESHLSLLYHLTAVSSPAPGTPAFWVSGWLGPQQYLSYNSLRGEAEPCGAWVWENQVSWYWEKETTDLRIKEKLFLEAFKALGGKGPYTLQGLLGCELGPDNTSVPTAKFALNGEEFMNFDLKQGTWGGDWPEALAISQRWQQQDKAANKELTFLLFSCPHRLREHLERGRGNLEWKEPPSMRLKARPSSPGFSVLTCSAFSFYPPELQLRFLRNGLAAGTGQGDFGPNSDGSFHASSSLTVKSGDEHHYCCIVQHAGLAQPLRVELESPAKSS
Target sequence in this assay (P61769 21-119 limits assumed, form in doubt, chain 2 of 2, further chain): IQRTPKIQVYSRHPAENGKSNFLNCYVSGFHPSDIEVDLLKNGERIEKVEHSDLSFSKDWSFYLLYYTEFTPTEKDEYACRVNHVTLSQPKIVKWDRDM

rFcRn (rat) [4] = target: rFcRn (rat) (UniProt P13599); assay: SPR Biacore, pH 7.4, 1000 nM antibody
Target sequence in this assay (P13599 23-298 limits assumed, form in doubt, chain 1 of 2): as the sequence (P13599 23-298 limits assumed, form in doubt, chain 1 of 2) above
Target sequence in this assay (P07151 21-119 limits assumed, form in doubt, chain 2 of 2, further chain): as the sequence (P07151 21-119 limits assumed, form in doubt, chain 2 of 2, further chain) above

[5] = target: biotinylated hFcRn (human) (UniProt P55899); assay: SPR Biacore, pH 6.0
Target sequence in this assay (P55899 24-297 limits assumed, form in doubt, chain 1 of 2): as the sequence (P55899 24-297 limits assumed, form in doubt, chain 1 of 2) above
Target sequence in this assay (P61769 21-119 limits assumed, form in doubt, chain 2 of 2, further chain): as the sequence (P61769 21-119 limits assumed, form in doubt, chain 2 of 2, further chain) above

[6] = target: biotinylated hFcRn (human) (UniProt P55899); assay: SPR Biacore, pH 7.4
Target sequence in this assay (P55899 24-297 limits assumed, form in doubt, chain 1 of 2): as the sequence (P55899 24-297 limits assumed, form in doubt, chain 1 of 2) above
Target sequence in this assay (P61769 21-119 limits assumed, form in doubt, chain 2 of 2, further chain): as the sequence (P61769 21-119 limits assumed, form in doubt, chain 2 of 2, further chain) above

rFcRn (rat) [7] = target: rFcRn (rat) (UniProt P13599); assay: SPR Biacore, pH 7.4
Target sequence in this assay (P13599 23-298 limits assumed, form in doubt, chain 1 of 2): as the sequence (P13599 23-298 limits assumed, form in doubt, chain 1 of 2) above
Target sequence in this assay (P07151 21-119 limits assumed, form in doubt, chain 2 of 2, further chain): as the sequence (P07151 21-119 limits assumed, form in doubt, chain 2 of 2, further chain) above

[8] = target: biotinylated hFcRn (human) (UniProt P55899); assay: SPR Biacore, pH 6.0; remark: listed apart in the source
Target sequence in this assay (P55899 24-297 limits assumed, form in doubt, chain 1 of 2): as the sequence (P55899 24-297 limits assumed, form in doubt, chain 1 of 2) above
Target sequence in this assay (P61769 21-119 limits assumed, form in doubt, chain 2 of 2, further chain): as the sequence (P61769 21-119 limits assumed, form in doubt, chain 2 of 2, further chain) above

[9] = target: biotinylated hFcRn (human) (UniProt P55899); assay: Biacore SPR, pH 6.0, bivalent fit
Target sequence in this assay (P55899 24-297, form in doubt, chain 1 of 2): as the sequence (P55899 24-297 limits assumed, form in doubt, chain 1 of 2) above
Target sequence in this assay (P61769 21-119, form in doubt, chain 2 of 2, further chain): as the sequence (P61769 21-119 limits assumed, form in doubt, chain 2 of 2, further chain) above

[10] = target: biotinylated hFcRn (human) (UniProt P55899); assay: Biacore SPR, pH 7.4, single antibody concentration, steady state
Target sequence in this assay (P55899 24-297, form in doubt, chain 1 of 2): as the sequence (P55899 24-297 limits assumed, form in doubt, chain 1 of 2) above
Target sequence in this assay (P61769 21-119, form in doubt, chain 2 of 2, further chain): as the sequence (P61769 21-119 limits assumed, form in doubt, chain 2 of 2, further chain) above

rFcRn (rat) [11] = target: rFcRn (rat) (UniProt P13599); assay: as above
Target sequence in this assay (P13599 23-298, form in doubt, chain 1 of 2): as the sequence (P13599 23-298 limits assumed, form in doubt, chain 1 of 2) above
Target sequence in this assay (P07151 21-119, form in doubt, chain 2 of 2, further chain): as the sequence (P07151 21-119 limits assumed, form in doubt, chain 2 of 2, further chain) above

[12] = target: Human CD16a (FcγRIIIa) V158 with C-terminal HPC4 tag (human) (UniProt P08637); assay: Biacore SPR, captured HPC4-tagged FcγRIIIa-V158, steady-state fit
[13] = target: biotinylated human FcRn (hFcRn; p51 subunit residues 24-297 with C-terminal Avi-tag, β2-m residues 21-119) (human) (UniProt P55899); assay: Biacore SPR, pH 6.0, apparent affinity
[14] = target: biotinylated human FcRn (hFcRn; p51 subunit residues 24-297 with C-terminal Avi-tag, β2-m residues 21-119) (human) (UniProt P55899); assay: Biacore SPR, pH 7.4, steady state, 1000 nM antibody
[15] = target: biotinylated human FcRn (hFcRn; p51 subunit residues 24-297 with C-terminal Avi-tag, β2-m residues 21-119) (human) (UniProt P55899); assay: Biacore SPR, Biotin CAPture, pH 7.4, 1000 nM antibody, steady state

Chain of Human CD16a (FcγRIIIa) V158 with C-terminal HPC4 tag (human) (P08637 17-208 F176V): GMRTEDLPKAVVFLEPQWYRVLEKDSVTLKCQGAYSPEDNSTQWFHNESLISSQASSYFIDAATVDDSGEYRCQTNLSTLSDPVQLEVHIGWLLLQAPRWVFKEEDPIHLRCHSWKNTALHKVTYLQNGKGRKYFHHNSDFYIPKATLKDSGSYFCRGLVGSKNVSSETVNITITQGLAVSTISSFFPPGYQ
Chain of biotinylated human FcRn (hFcRn; p51 subunit residues 24-297 with C-terminal Avi-tag, β2-m residues 21-119) (human) (P55899 24-297, form in doubt, chain 1 of 2): as the sequence (P55899 24-297 limits assumed, form in doubt, chain 1 of 2) above
Chain of biotinylated human FcRn (hFcRn; p51 subunit residues 24-297 with C-terminal Avi-tag, β2-m residues 21-119) (human) (P61769 21-119, form in doubt, chain 2 of 2, further chain): as the sequence (P61769 21-119 limits assumed, form in doubt, chain 2 of 2, further chain) above

mAb1 T307F (antibody) showed a Kd (rFcRn (rat) [1]) of 131 nM, a Kd (rFcRn (rat) [2]) of 131 nM and a Steady State RU [3] of 4.9 RU. It also gave a Steady State RU (rFcRn (rat) [4]) of 21.9 RU.
With mAb1 T307M (antibody) the Kd (rFcRn (rat) [1]) was 279 nM, the Kd (rFcRn (rat) [2]) was 279 nM and the Steady State RU [3] was 4.4 RU. It also gave a Steady State RU (rFcRn (rat) [4]) of 15.3 RU.
mAb1 T307Q (antibody) gave a Kd [5] of 5720 nM, a Kd (rFcRn (rat) [1]) of 58 nM and a Steady State RU [6] of 6.6 RU. The Steady State RU (rFcRn (rat) [7]) was 31.3 RU, the Kd [8] was > 3000 nM and the Kd [9] was 5720 nM. The Kd (rFcRn (rat) [2]) was 58 nM, the Steady State RU [3] was 6.4 RU and the Steady State RU (rFcRn (rat) [4]) was 24.3 RU.
mAb1 T307Q/N434F (antibody) gave a Kd [5] of 42.9 nM, a koff [5] of 0.0246 s⁻¹ and a kon [5] of 574000 M⁻¹ s⁻¹. For the same substance, the Kd (rFcRn (rat) [1]) was 3.89 nM, the koff (rFcRn (rat) [1]) was 0.0004 s⁻¹ and the kon (rFcRn (rat) [1]) was 104000 M⁻¹ s⁻¹. For the same substance, the Steady State RU [6] was 34.2 RU and the Steady State RU (rFcRn (rat) [7]) was 62.5 RU.
mAb1 T307Q/N434Y (antibody) gave a Kd [5] of 32.4 nM, a koff [5] of 0.0202 s⁻¹ and a kon [5] of 622000 M⁻¹ s⁻¹. The Kd (rFcRn (rat) [1]) was 4.11 nM, the koff (rFcRn (rat) [1]) was 0.00048 s⁻¹ and the kon (rFcRn (rat) [1]) was 116000 M⁻¹ s⁻¹. The Steady State RU [6] was 38.4 RU and the Steady State RU (rFcRn (rat) [7]) was 63 RU.
For mAb1 T307W (antibody), the Kd [5] was 8740 nM, the Kd (rFcRn (rat) [1]) was 111 nM and the Steady State RU (rFcRn (rat) [7]) was 21.9 RU. For the same substance, the Kd [8] was > 3000 nM, the Kd [9] was 8740 nM and the Kd (rFcRn (rat) [2]) was 111 nM. It also gave a Steady State RU (rFcRn (rat) [4]) of 19.2 RU.
In the case of mAb1 T307W/N434F (antibody), the Kd [5] is reported as 38.2 nM, the Kd (rFcRn (rat) [1]) is reported as 2.7 nM and the koff (rFcRn (rat) [1]) is reported as 0.00057 s⁻¹. It also gave a Steady State RU [6] of 30.5 RU and a Steady State RU (rFcRn (rat) [7]) of 65.1 RU.
With mAb1 T307W/N434Y (antibody) the Kd [5] was 21.5 nM, the koff [5] was 0.0317 s⁻¹ and the kon [5] was 1.48e+06 M⁻¹ s⁻¹. It also gave a Kd (rFcRn (rat) [1]) of 0.62 nM, a koff (rFcRn (rat) [1]) of 0.0003 s⁻¹ and a kon (rFcRn (rat) [1]) of 480000 M⁻¹ s⁻¹. The Steady State RU [6] was 37.2 RU and the Steady State RU (rFcRn (rat) [7]) was 69.6 RU.
mAb1 Y436H (antibody) showed a Kd (rFcRn (rat) [1]) of 131 nM, a Kd (rFcRn (rat) [2]) of 131 nM and a Steady State RU [3] of 3.6 RU. The Steady State RU (rFcRn (rat) [4]) was 16.3 RU.
Substance mAb1 Y436N (antibody) has a Kd (rFcRn (rat) [1]) of 233 nM, a Kd (rFcRn (rat) [2]) of 233 nM and a Steady State RU [3] of 3.6 RU. It also gave a Steady State RU (rFcRn (rat) [4]) of 17.4 RU.
mAb1 Y436W (antibody) was tested, and the Kd (rFcRn (rat) [1]) was 1140 nM, the Kd (rFcRn (rat) [2]) was 1140 nM and the Steady State RU [3] was 3.7 RU. The Steady State RU (rFcRn (rat) [4]) was 10.3 RU.
“mAb1 YDQN (M252Y/T256D/T307Q) (antibody)” was tested, and the Kd [9] was 115 nM, the koff [9] was 0.28 s⁻¹ and the kon [9] was 25000 M⁻¹ s⁻¹. For the same substance, the Kd (rFcRn (rat) [2]) was 5.1 nM, the koff (rFcRn (rat) [2]) was 0.0003 s⁻¹ and the kon (rFcRn (rat) [2]) was 5000 M⁻¹ s⁻¹. The Steady State RU (pH 7.4) [10] was 19.8 RU, the Steady State RU (pH 7.4) (rFcRn (rat) [11]) was 65.2 RU and the Kd [12] was 1060 nM.
For mAb1 YDTN (M252Y/T256D) (antibody), the Kd (rFcRn (rat) [2]) was 5.9 nM, the Steady State RU (pH 7.4) [10] was 9.7 RU and the Steady State RU (pH 7.4) (rFcRn (rat) [11]) was 56 RU. The Kd [12] was 1060 nM.
In the case of “mAb1 YDTY variant (M252Y/T256D/N434Y) (antibody)”, the Ka [13] is reported as 9.01e+07 M⁻¹, the Steady State Binding, pH 7.4 (RU) [14] is reported as 65.4 RU and the pH 7.4 RU [15] is reported as 69.7 RU.
“mAb1 YDWF variant (M252Y/T256D/T307W/N434F) (antibody)” gave a Ka [13] of 1.66e+08 M⁻¹, a Steady State Binding, pH 7.4 (RU) [14] of 71.8 RU and a pH 7.4 RU [15] of 75.7 RU.
“mAb1 YEQN (M252Y/T256E/T307Q) (antibody)” was tested, and the Kd [9] was 218 nM, the koff [9] was 0.41 s⁻¹ and the kon [9] was 19000 M⁻¹ s⁻¹. The Kd (rFcRn (rat) [2]) was 7.8 nM, the koff (rFcRn (rat) [2]) was 0.0004 s⁻¹ and the kon (rFcRn (rat) [2]) was 5000 M⁻¹ s⁻¹. For the same substance, the Steady State RU (pH 7.4) [10] was 15.2 RU, the Steady State RU (pH 7.4) (rFcRn (rat) [11]) was 61.8 RU and the Kd [12] was 1620 nM.
mAb1 YETN (M252Y/T256E) (antibody) gave a Kd [9] of 128 nM, a kon [9] of 59000 M⁻¹ s⁻¹ and a Kd (rFcRn (rat) [2]) of 8.4 nM. For the same substance, the koff (rFcRn (rat) [2]) was 0.0027 s⁻¹, the kon (rFcRn (rat) [2]) was 32000 M⁻¹ s⁻¹ and the Steady State RU (pH 7.4) [10] was 9.8 RU. It also gave a Steady State RU (pH 7.4) (rFcRn (rat) [11]) of 55.1 RU and a Kd [12] of 878 nM.
For mAb1 YTE (M252Y/S254T/T256E) (antibody), the Kd [9] was 342 nM, the koff [9] was 0.05 s⁻¹ and the kon [9] was 143000 M⁻¹ s⁻¹. It also gave a Kd (rFcRn (rat) [2]) of 18 nM, a koff (rFcRn (rat) [2]) of 0.0012 s⁻¹ and a kon (rFcRn (rat) [2]) of 65000 M⁻¹ s⁻¹. The Steady State RU (pH 7.4) [10] was 13.2 RU, the Steady State RU (pH 7.4) (rFcRn (rat) [11]) was 53.9 RU and the Kd [12] was 1040 nM.
Work on mAb1 YTWN (M252Y/T307W) (antibody) yielded a Kd [9] of 118 nM, a kon [9] of 48000 M⁻¹ s⁻¹ and a Kd (rFcRn (rat) [2]) of 5.2 nM. For the same substance, the koff (rFcRn (rat) [2]) was 0.0011 s⁻¹, the kon (rFcRn (rat) [2]) was 21000 M⁻¹ s⁻¹ and the Steady State RU (pH 7.4) [10] was 15.9 RU. The Steady State RU (pH 7.4) (rFcRn (rat) [11]) was 66.1 RU and the Kd [12] was 896 nM.
With “mAb1 YTWY variant (M252Y/T307W/N434Y) (antibody)” the Ka [13] was 1.06e+08 M⁻¹, the Steady State Binding, pH 7.4 (RU) [14] was 75.1 RU and the pH 7.4 RU [15] was 77.1 RU.
